Experimental data published in paper PMC11298625, “MdVQ17 negatively regulates apple resistance to Glomerella leaf spot by promoting MdWRKY17-mediated salicylic acid degradation and pectin lyase activity”.

B1: MdPL-like-P3 probe (dsDNA)
DNA 1: AGTTGACCATTGACCGTTGACTGAGTCAACAGTCAAGGTCAACT
DNA 2: AGTTGACCTTGACTGTTGACTCAGTCAACGGTCAATGGTCAACT
B2: MdPL-like-P1 probe (dsDNA)
DNA 1: AGGAGTACCTTTGGTCAAACTATATTCAAA
DNA 2: TTTGAATATAGTTTGACCAAAGGTACTCCT
B3: MdPL-like-P2 probe (dsDNA)
DNA 1: AAGTCAACTAAAAAAGTCAACGTCTGACCGTTGACTGGTCAAAG
DNA 2: CTTTGACCAGTCAACGGTCAGACGTTGACTTTTTTAGTTGACTT
B4: MdDMR6 probe (dsDNA)
DNA 1: ATATTGTTTTCTGCATTTTTGACTTAATTTTTATAAATTAA
DNA 2: TTAATTTATAAAAATTAAGTCAAAAATGCAGAAAACAATAT

target: MdWRKY17 (Malus x domestica, UniProt A0A9E6GT21 1-512); assay: EMSA; Chemiluminescent EMSA Kit (Beyotime); buffer, salt, pH and temperature not stated; conditions: protein: recombinant; tags: His (pET32a); label: biotin; blunt
Sequence (A0A9E6GT21 entry or part of it): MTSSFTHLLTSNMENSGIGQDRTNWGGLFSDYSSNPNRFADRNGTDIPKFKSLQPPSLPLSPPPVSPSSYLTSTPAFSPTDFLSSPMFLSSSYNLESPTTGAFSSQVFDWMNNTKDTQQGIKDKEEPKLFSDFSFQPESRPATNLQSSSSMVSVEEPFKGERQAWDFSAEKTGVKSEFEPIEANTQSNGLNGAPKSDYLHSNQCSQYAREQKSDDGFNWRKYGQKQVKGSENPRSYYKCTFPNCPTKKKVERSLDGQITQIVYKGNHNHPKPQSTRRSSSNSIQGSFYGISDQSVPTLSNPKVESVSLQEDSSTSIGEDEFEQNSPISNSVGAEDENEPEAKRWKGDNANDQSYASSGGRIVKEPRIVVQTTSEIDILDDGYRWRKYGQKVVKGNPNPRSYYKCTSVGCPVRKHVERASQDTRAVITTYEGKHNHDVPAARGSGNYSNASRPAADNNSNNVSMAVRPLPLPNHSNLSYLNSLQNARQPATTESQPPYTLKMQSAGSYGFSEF

Binding result, binds:
B1
B2
B3
B4
